Publication doi:10.1101/2020.06.12.149468

Target: DesC, NADH-dependent 20α-hydroxysteroid dehydrogenase of Clostridium scindens ATCC 35704 (Clostridium scindens ATCC 35704)
Assay: crystal structure

stoichiometry N: 4
Substance: DesC, NADH-dependent 20α-hydroxysteroid dehydrogenase of Clostridium scindens ATCC 35704 (enzyme)
